Source: publication PMC7619190, “Pervanadate-induced oxidation relieves autoinhibition of SRC protein tyrosine kinase” (Science signaling, 2026)
Where no end group is shown, it is not given here. [ ]: non-standard residue; d: D form. pY = N[C@@H](Cc1ccc(OP(=O)(O)O)cc1)C(=O)O

B1: optimized SRC binding phosphopeptide (EPQpYEEIP) (peptide)
peptide: EPQ[pY]EEIP
notes: source: synthetic peptide, bought: Biosynth (95% purity)
B2: peroxiredoxin 1 (PRDX1) (natural protein, human (endogenous in HEK293T), UniProt Q06830 1-199, looked up)
chain: MSSGNAKIGHPAPNFKATAVMPDGQFKDISLSDYKGKYVVFFFYPLDFTFVCPTEIIAFSDRAEEFKKLNCQVIGASVDSHFCHLAWVNTPKKQGGLGPMNIPLVSDPKRTIAQDYGVLKADEGISFRGLFIIDDKGILRQITVNDLPVGRSVDETLRLVQAFQFTDKHGEVCPAGWKPGSDTIKPDVQKSKEYFSKQK
notes: peroxiredoxin 1, endogenous in HEK293T cells; Disulfide-linked dimer seen on non-reducing gels; source: endogenous, HEK293T lysate

Legend:
[1] = molecular target: T1, human SRC SH2 domain (Gln147-Lys252), wild type (human, UniProt P12931-1 147-252); assay: ITC; peptide (400 uM) titrated into SRC SH2 (40 uM) in the cell, 25 C, MicroCal PEAQ-ITC Automated; SH2 domain pretreated with 1 mM TCEP (reducing conditions); conditions: both partners purified
T1 construct: SRC SH2 domain, human, residues Gln147-Lys252, cloned in pETM11; numbering on UniProt P12931-1; Used after pretreatment with 1 mM TCEP (reduced) or 0.1 mM pervanadate (cysteines oxidised; which residues were oxidised in this sample was not determined); The two states are told apart by the assay (a1, a2); also called SH2^WT; SRC SH2^WT

[2] = molecular target: the molecule itself; assay: non-reducing SDS-PAGE and immunoblot; HEK293T cells, PV time course, washed with PBS with catalase and NEM, lysed in 2% SDS with NEM; disulfide-linked dimer as slower migrating species

Row | Binder | binding result [1] | stoichiometry N [2]
1 | B1 | binds | –
2 | B2 | – | 2
